Reference: patent publication US20240269176A1 (Hoffmann-La Roche, published 2024)
Read-outs that look alike come from different tables or passages of the source.

Key:
[1] = target: VH3VL1-CD8ATD-CD137CSD-CD3zSSD fusion; assay: cell-based or functional assay
[2] = target: VL1VH3-CD8ATD-CD137CSD-CD3zSSD fusion; assay: cell-based or functional assay
[3] = target: VH2VL1-CD8ATD-CD137CSD-CD3zSSD fusion; assay: cell-based or functional assay
[4] = target: VH1VL1-CD8ATD-CD137CSD-CD3zSSD fusion; assay: cell-based or functional assay
[5] = target: T1, VH3VL1-CD8ATD-CD137CSD-CD3zSSD fusion; assay: NFAT-luciferase reporter assay, anti-P329G CAR Jurkat cells with WSUDLCL2 (CD20+) target cells
T1 construct: Chimeric antigen receptor with humanized anti-P329G scFv (VH-linker-VL), expressed on Jurkat NFAT reporter T cells; expression construct carried a T2A-GFP reporter
Procedure: (§1) Binding of the CAR to an immobilized adapter molecule (e.g. a tumor antigen bound adapter molecule) leads to CAR crosslinking resulting in T cell activation and in the expression of luciferase. […] The 384 well plate was centrifuged for 1 min at 300 g and RT and incubated at 37° C. and 5% CO₂ in a humidity atmosphere. After 7 h incubation 20% of the final volume of ONE-Glo™ Luciferase Assay (E6120, Promega) was added, and plates were centrifuged for 1 min at 350×g. Afterwards, the relative luminescence units (RLU) per s/well were measured immediately using a Tecan microplate reader. Concentration-response curves were fitted and EC₅₀ values were calculated using GraphPadPrism version 7. As p value the New England Journal of Medicine style was used as listed in GraphPadPrism 7. Meaning *=P≤0,033; **=P≤0,002; ***=P≤0,001.

[6] = target: T2, VL1VH3-CD8ATD-CD137CSD-CD3zSSD fusion; assay: as above
T2 construct: Chimeric antigen receptor with scFv in VL-linker-VH orientation on Jurkat NFAT reporter T cells; the entry may be incomplete
Procedure: as §1

[7] = target: T3, VH2VL1-CD8ATD-CD137CSD-CD3zSSD fusion; assay: as above
T3 construct: Chimeric antigen receptor on Jurkat NFAT reporter T cells; also called VH2VL1 P329G-CAR
Procedure: as §1

[8] = target: T4, VH1VL1-CD8ATD-CD137CSD-CD3zSSD fusion; assay: as above
T4 construct: Chimeric antigen receptor on Jurkat NFAT reporter T cells; also called VH1VL1 P329G-CAR
Procedure: as §1

[9] = target: T1, VH3VL1-CD8ATD-CD137CSD-CD3zSSD fusion; assay: cell-based or functional assay; remark: listed apart in the source
[10] = target: T2, VL1VH3-CD8ATD-CD137CSD-CD3zSSD fusion; assay: cell-based or functional assay; remark: listed apart in the source
[11] = target: T4, VH1VL1-CD8ATD-CD137CSD-CD3zSSD fusion; assay: cell-based or functional assay; remark: listed apart in the source
[12] = target: T2, VL1VH3-CD8ATD-CD137CSD-CD3zSSD fusion; assay: cell-based or functional assay; remark: listed apart in the source
[13] = target: T4, VH1VL1-CD8ATD-CD137CSD-CD3zSSD fusion; assay: cell-based or functional assay; remark: listed apart in the source
[14] = target: T1, VH3VL1-CD8ATD-CD137CSD-CD3zSSD fusion; assay: NFAT-luciferase reporter assay, anti-P329G CAR Jurkat cells with WSUDLCL2 (CD20+) target cells; remark: listed apart in the source
Procedure: as §1

[15] = target: T2, VL1VH3-CD8ATD-CD137CSD-CD3zSSD fusion; assay: as above; remark: listed apart in the source
Procedure: as §1

[16] = target: T3, VH2VL1-CD8ATD-CD137CSD-CD3zSSD fusion; assay: as above; remark: listed apart in the source
Procedure: as §1

[17] = target: T4, VH1VL1-CD8ATD-CD137CSD-CD3zSSD fusion; assay: as above; remark: listed apart in the source
Procedure: as §1

[18] = target: murinPG-Fab-CAR; assay: cell-based or functional assay

T1 sequence (chain, as listed by the source): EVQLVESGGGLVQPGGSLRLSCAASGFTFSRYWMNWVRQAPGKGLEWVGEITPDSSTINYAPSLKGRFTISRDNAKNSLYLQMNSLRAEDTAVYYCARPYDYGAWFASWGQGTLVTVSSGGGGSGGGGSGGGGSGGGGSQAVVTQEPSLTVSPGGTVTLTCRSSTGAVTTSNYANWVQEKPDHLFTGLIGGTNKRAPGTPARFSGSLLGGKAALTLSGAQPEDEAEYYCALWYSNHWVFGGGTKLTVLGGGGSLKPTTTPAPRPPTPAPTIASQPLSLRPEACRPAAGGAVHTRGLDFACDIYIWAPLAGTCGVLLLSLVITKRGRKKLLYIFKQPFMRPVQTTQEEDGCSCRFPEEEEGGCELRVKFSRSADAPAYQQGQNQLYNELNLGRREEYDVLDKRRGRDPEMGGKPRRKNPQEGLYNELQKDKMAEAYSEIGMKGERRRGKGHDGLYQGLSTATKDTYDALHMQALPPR
T2 sequence (chain, as listed by the source): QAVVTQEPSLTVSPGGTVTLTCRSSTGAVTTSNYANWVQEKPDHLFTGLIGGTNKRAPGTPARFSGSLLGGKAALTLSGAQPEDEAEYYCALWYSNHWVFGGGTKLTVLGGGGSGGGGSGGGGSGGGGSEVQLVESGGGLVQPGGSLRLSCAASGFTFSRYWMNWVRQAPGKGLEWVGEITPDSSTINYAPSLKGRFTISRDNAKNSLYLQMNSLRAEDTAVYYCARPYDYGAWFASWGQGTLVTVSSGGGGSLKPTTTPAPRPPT
T4 sequence (chain, as listed by the source): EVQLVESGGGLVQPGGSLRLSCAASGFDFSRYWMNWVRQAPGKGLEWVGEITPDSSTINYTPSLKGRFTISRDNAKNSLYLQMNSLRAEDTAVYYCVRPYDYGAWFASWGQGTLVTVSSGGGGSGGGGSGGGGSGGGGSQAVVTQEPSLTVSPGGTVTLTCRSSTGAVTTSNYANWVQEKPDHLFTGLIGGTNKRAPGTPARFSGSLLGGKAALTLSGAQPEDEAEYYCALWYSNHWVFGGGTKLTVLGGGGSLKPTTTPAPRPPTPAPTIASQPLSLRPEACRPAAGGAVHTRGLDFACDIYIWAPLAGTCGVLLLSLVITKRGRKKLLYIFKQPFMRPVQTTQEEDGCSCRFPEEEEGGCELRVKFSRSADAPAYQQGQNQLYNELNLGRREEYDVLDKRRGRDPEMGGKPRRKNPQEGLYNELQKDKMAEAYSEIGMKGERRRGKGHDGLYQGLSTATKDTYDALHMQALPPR
T3 sequence (chain, as listed by the source): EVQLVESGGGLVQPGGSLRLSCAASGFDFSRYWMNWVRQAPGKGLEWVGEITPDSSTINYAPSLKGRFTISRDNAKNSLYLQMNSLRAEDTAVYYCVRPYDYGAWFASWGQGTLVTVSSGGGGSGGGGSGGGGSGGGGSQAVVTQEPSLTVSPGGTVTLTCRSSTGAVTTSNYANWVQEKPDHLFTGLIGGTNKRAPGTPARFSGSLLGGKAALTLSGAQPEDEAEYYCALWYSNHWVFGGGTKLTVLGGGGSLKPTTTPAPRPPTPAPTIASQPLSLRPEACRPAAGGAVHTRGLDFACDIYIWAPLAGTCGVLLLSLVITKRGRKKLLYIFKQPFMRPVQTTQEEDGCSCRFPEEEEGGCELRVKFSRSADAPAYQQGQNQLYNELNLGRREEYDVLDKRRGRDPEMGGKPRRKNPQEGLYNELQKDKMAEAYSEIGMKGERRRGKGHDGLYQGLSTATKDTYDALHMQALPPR

B1: anti-CD20 (GA101) P329G LALA IgG1 (antibody)
heavy: not shown
light: DIVMTQTPLSLPVTPGEPASISCRSSKSLLHSNGITYLYWYLQKPGQSPQLLIYQMSNLVSGVPDRFSGSGSGTDFTLKISRVEAEDVGVYYCAQNLELPYTFGGGTKVEIKRTVAAPSVFIFPPSDEQLKSGTASVVCLLNNFYPREAKVQWKVDNALQSGNSQESVTEQDSKDSTYSLSSTLTLSKADYEKHKVYACEVTHQGLSSPVTKSFNRGEC
EC50 of NFAT-luciferase activation of anti-P329G CAR Jurkat cells, WSUDLCL2 target cells (5:1); VH3 x VL1 [1]: 7.57 pM | EC50 of NFAT-luciferase activation of anti-P329G CAR Jurkat cells, WSUDLCL2 target cells (5:1); VL1 x VH 3 [2]: ~6.58 pM | EC50 of NFAT-luciferase activation of anti-P329G CAR Jurkat cells, WSUDLCL2 target cells (5:1); table row VH2 x VL1 [3]: ~6.93 pM | EC50 of NFAT-luciferase activation of anti-P329G CAR Jurkat cells, WSUDLCL2 target cells (5:1); VH1 x VL1 [4]: 8.1 pM

B2: anti-CD20 (GA101) wild type IgG1 (antibody)
heavy: not shown
light: B1 light
notes: also called WT GA101
binding result [5]: no binding (tested: just below 10^2 nM (67 nM per paragraph 404)) | binding result [6]: no binding (tested: just below 10^2 nM (67 nM per paragraph 404)) | binding result [7]: no binding (tested: just below 10^2 nM (67 nM per paragraph 404)) | binding result [8]: no binding (tested: just below 10^2 nM (67 nM per paragraph 404)) | EC50 of NFAT-luciferase activation of anti-P329G CAR Jurkat cells, WSUDLCL2 target cells (5:1); curve flat at 50-150 RLU/s, fit without meaning; VH3 x VL1 [9]: ~85 pM | EC50 of NFAT-luciferase activation of anti-P329G CAR Jurkat cells, WSUDLCL2 target cells (5:1); curve flat at 50-150 RLU/s, fit without meaning; VL1 x VH 3 [10]: ~78.3 pM | EC50 of NFAT-luciferase activation of anti-P329G CAR Jurkat cells, WSUDLCL2 target cells (5:1); curve flat at 50-150 RLU/s, fit without meaning; VH1 x VL1 [11]: ~2.19 pM

B3: anti-CD20 (GA101) LALA IgG1 (antibody)
heavy: not shown
light: B1 light
EC50 of NFAT-luciferase activation of anti-P329G CAR Jurkat cells, WSUDLCL2 target cells (5:1); curve flat at 60-150 RLU/s, fit without meaning; VL1 x VH 3 [12]: ~0.000234 pM | EC50 of NFAT-luciferase activation of anti-P329G CAR Jurkat cells, WSUDLCL2 target cells (5:1); curve flat at 60-150 RLU/s, fit without meaning; VH1 x VL1 [13]: ~0.0485 pM | binding result [14]: no binding (tested: just below 10^2 nM (67 nM per paragraph 404)) | binding result [15]: no binding (tested: just below 10^2 nM (67 nM per paragraph 404)) | binding result [16]: no binding (tested: just below 10^2 nM (67 nM per paragraph 404)) | binding result [17]: no binding (tested: just below 10^2 nM (67 nM per paragraph 404))

B4: anti-CD20 (GA101) heterodimeric IgG1 (antibody)
heavy 1: QVQLVQSGAEVKKPGSSVKVSCKASGYAFSYSWINWVRQAPGQGLEWMGRIFPGDGDTDYNGKFKGRVTITADKSTSTAYMELSSLRSEDTAVYYCARNVFDGYWLVYWGQGTLVTVSSASTKGPSVFPLAPSSKSTSGGTAALGCLVKDYFPEPVTVSWNSGALTSGVHTFPAVLQSSGLYSLSSVVTVPSSSLGTQTYICNVNHKPSNTKVDKKVEPKSCDKTHTCPPCPAPELLGGPSVFLFPPKPKDTLMISRTPEVTCVVVDVSHEDPEVKFNWYVDGVEVHNAKTKPREEQYNSTYRVVSVLTVLHQDWLNGKEYKCKVSNKALGAPIEKTISKAKGQPREPQVYTLPPCRDELTKNQVSLWCLVKGFYPSDIAVEWESNGQPENNYKTTPPVLDSDGSFFLYSKLTVDKSRWQQGNVFSCSVMHEALHNHYTQKSLSLSP
heavy 2: QVQLVQSGAEVKKPGSSVKVSCKASGYAFSYSWINWVRQAPGQGLEWMGRIFPGDGDTDYNGKFKGRVTITADKSTSTAYMELSSLRSEDTAVYYCARNVFDGYWLVYWGQGTLVTVSSASTKGPSVFPLAPSSKSTSGGTAALGCLVKDYFPEPVTVSWNSGALTSGVHTFPAVLQSSGLYSLSSVVTVPSSSLGTQTYICNVNHKPSNTKVDKKVEPKSCDKTHTCPPCPAPELLGGPSVFLFPPKPKDTLMISRTPEVTCVVVDVSHEDPEVKFNWYVDGVEVHNAKTKPREEQYNSTYRVVSVLTVLHQDWLNGKEYKCKVSNKALPAPIEKTISKAKGQPREPQVCTLPPSRDEL
light: B1 light
modifications: defucosylated
EC50 (read off the curve); NFAT-luciferase, anti-P329G CAR Jurkat reporter cells (panel title murinPG-Fab-CAR activation) with WSUDLCL2 CD20+ target cells [18]: ~20 pM
